According to article PMC12416549 (2024):

T1: TNFR1 (Homo sapiens, UniProt P19438)
T1 chain: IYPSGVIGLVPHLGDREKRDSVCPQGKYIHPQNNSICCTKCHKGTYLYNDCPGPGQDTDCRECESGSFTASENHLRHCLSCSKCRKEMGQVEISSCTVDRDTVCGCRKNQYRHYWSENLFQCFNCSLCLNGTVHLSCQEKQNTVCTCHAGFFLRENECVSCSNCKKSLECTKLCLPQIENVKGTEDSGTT


Molecular target: T1, TNFR1
Assay: yeast display SC50

Binder | apparent Kd (screen)
K93F (designed binder) SMEEEVEKAAKEYEKKKKEAIEKHLEKLKAKDKEAAERFLKELEEAAKEYAKDEAKTMSEEEAKRRAKKYKEKVLLSELSEEEQKEIKEAEEFLVRTILKYVEEAAK | 0.653 nM
Y101M (designed binder) SMEEEVEKAAKEYEKKKKEAIEKHLEKLKAKDKEAAERFLKELEEAAKEYAKDEAKTMSEEEAKRRAKKYKEKVLLSELSEEEQKEIKEAEEKLVRTILKMVEEAAK | 2.25 nM
K33T (designed binder) SMEEEVEKAAKEYEKKKKEAIEKHLEKLKAKDTEAAERFLKELEEAAKEYAKDEAKTMSEEEAKRRAKKYKEKVLLSELSEEEQKEIKEAEEKLVRTILKYVEEAAK | 0.49 nM
M2Q (designed binder) SQEEEVEKAAKEYEKKKKEAIEKHLEKLKAKDKEAAERFLKELEEAAKEYAKDEAKTMSEEEAKRRAKKYKEKVLLSELSEEEQKEIKEAEEKLVRTILKYVEEAAK | 0.869 nM
A67D (designed binder) SMEEEVEKAAKEYEKKKKEAIEKHLEKLKAKDKEAAERFLKELEEAAKEYAKDEAKTMSEEEAKRRDKKYKEKVLLSELSEEEQKEIKEAEEKLVRTILKYVEEAAK | 5.31 nM
K71N (designed binder) SMEEEVEKAAKEYEKKKKEAIEKHLEKLKAKDKEAAERFLKELEEAAKEYAKDEAKTMSEEEAKRRAKKYNEKVLLSELSEEEQKEIKEAEEKLVRTILKYVEEAAK | 0.446 nM
E60N (designed binder) SMEEEVEKAAKEYEKKKKEAIEKHLEKLKAKDKEAAERFLKELEEAAKEYAKDEAKTMSNEEAKRRAKKYKEKVLLSELSEEEQKEIKEAEEKLVRTILKYVEEAAK | 3.63 nM
Y50Q (designed binder) SMEEEVEKAAKEYEKKKKEAIEKHLEKLKAKDKEAAERFLKELEEAAKEQAKDEAKTMSEEEAKRRAKKYKEKVLLSELSEEEQKEIKEAEEKLVRTILKYVEEAAK | 4.83 nM
I98F (designed binder) SMEEEVEKAAKEYEKKKKEAIEKHLEKLKAKDKEAAERFLKELEEAAKEYAKDEAKTMSEEEAKRRAKKYKEKVLLSELSEEEQKEIKEAEEKLVRTFLKYVEEAAK | 4.39 nM
K85D (designed binder) SMEEEVEKAAKEYEKKKKEAIEKHLEKLKAKDKEAAERFLKELEEAAKEYAKDEAKTMSEEEAKRRAKKYKEKVLLSELSEEEQDEIKEAEEKLVRTILKYVEEAAK | 0.446 nM
E5A (designed binder) SMEEAVEKAAKEYEKKKKEAIEKHLEKLKAKDKEAAERFLKELEEAAKEYAKDEAKTMSEEEAKRRAKKYKEKVLLSELSEEEQKEIKEAEEKLVRTILKYVEEAAK | 0.593 nM
E89C (designed binder) SMEEEVEKAAKEYEKKKKEAIEKHLEKLKAKDKEAAERFLKELEEAAKEYAKDEAKTMSEEEAKRRAKKYKEKVLLSELSEEEQKEIKCAEEKLVRTILKYVEEAAK | 1.86 nM
E7S (designed binder) SMEEEVSKAAKEYEKKKKEAIEKHLEKLKAKDKEAAERFLKELEEAAKEYAKDEAKTMSEEEAKRRAKKYKEKVLLSELSEEEQKEIKEAEEKLVRTILKYVEEAAK | 2.73 nM
E62K (designed binder) SMEEEVEKAAKEYEKKKKEAIEKHLEKLKAKDKEAAERFLKELEEAAKEYAKDEAKTMSEEKAKRRAKKYKEKVLLSELSEEEQKEIKEAEEKLVRTILKYVEEAAK | 0.49 nM
A10G (designed binder) SMEEEVEKAGKEYEKKKKEAIEKHLEKLKAKDKEAAERFLKELEEAAKEYAKDEAKTMSEEEAKRRAKKYKEKVLLSELSEEEQKEIKEAEEKLVRTILKYVEEAAK | 0.446 nM
K85L (designed binder) SMEEEVEKAAKEYEKKKKEAIEKHLEKLKAKDKEAAERFLKELEEAAKEYAKDEAKTMSEEEAKRRAKKYKEKVLLSELSEEEQLEIKEAEEKLVRTILKYVEEAAK | 0.79 nM
E26V (designed binder) SMEEEVEKAAKEYEKKKKEAIEKHLVKLKAKDKEAAERFLKELEEAAKEYAKDEAKTMSEEEAKRRAKKYKEKVLLSELSEEEQKEIKEAEEKLVRTILKYVEEAAK | 0.79 nM

Binder | apparent Kd (screen)
K15D (designed binder) SMEEEVEKAAKEYEDKKKEAIEKHLEKLKAKDKEAAERFLKELEEAAKEYAKDEAKTMSEEEAKRRAKKYKEKVLLSELSEEEQKEIKEAEEKLVRTILKYVEEAAK | 0.653 nM
S77Y (designed binder) SMEEEVEKAAKEYEKKKKEAIEKHLEKLKAKDKEAAERFLKELEEAAKEYAKDEAKTMSEEEAKRRAKKYKEKVLLYELSEEEQKEIKEAEEKLVRTILKYVEEAAK | 0.869 nM
S80C (designed binder) SMEEEVEKAAKEYEKKKKEAIEKHLEKLKAKDKEAAERFLKELEEAAKEYAKDEAKTMSEEEAKRRAKKYKEKVLLSELCEEEQKEIKEAEEKLVRTILKYVEEAAK | 1.05 nM
H24C (designed binder) SMEEEVEKAAKEYEKKKKEAIEKCLEKLKAKDKEAAERFLKELEEAAKEYAKDEAKTMSEEEAKRRAKKYKEKVLLSELSEEEQKEIKEAEEKLVRTILKYVEEAAK | 0.446 nM
E61P (designed binder) SMEEEVEKAAKEYEKKKKEAIEKHLEKLKAKDKEAAERFLKELEEAAKEYAKDEAKTMSEPEAKRRAKKYKEKVLLSELSEEEQKEIKEAEEKLVRTILKYVEEAAK | 0.869 nM
E104I (designed binder) SMEEEVEKAAKEYEKKKKEAIEKHLEKLKAKDKEAAERFLKELEEAAKEYAKDEAKTMSEEEAKRRAKKYKEKVLLSELSEEEQKEIKEAEEKLVRTILKYVEIAAK | 0.653 nM
E3L (designed binder) SMLEEVEKAAKEYEKKKKEAIEKHLEKLKAKDKEAAERFLKELEEAAKEYAKDEAKTMSEEEAKRRAKKYKEKVLLSELSEEEQKEIKEAEEKLVRTILKYVEEAAK | 12.5 nM
K73H (designed binder) SMEEEVEKAAKEYEKKKKEAIEKHLEKLKAKDKEAAERFLKELEEAAKEYAKDEAKTMSEEEAKRRAKKYKEHVLLSELSEEEQKEIKEAEEKLVRTILKYVEEAAK | 12.5 nM
E54Y (designed binder) SMEEEVEKAAKEYEKKKKEAIEKHLEKLKAKDKEAAERFLKELEEAAKEYAKDYAKTMSEEEAKRRAKKYKEKVLLSELSEEEQKEIKEAEEKLVRTILKYVEEAAK | 7.78 nM
E34N (designed binder) SMEEEVEKAAKEYEKKKKEAIEKHLEKLKAKDKNAAERFLKELEEAAKEYAKDEAKTMSEEEAKRRAKKYKEKVLLSELSEEEQKEIKEAEEKLVRTILKYVEEAAK | 0.49 nM
M2N (designed binder) SNEEEVEKAAKEYEKKKKEAIEKHLEKLKAKDKEAAERFLKELEEAAKEYAKDEAKTMSEEEAKRRAKKYKEKVLLSELSEEEQKEIKEAEEKLVRTILKYVEEAAK | 0.49 nM
K17D (designed binder) SMEEEVEKAAKEYEKKDKEAIEKHLEKLKAKDKEAAERFLKELEEAAKEYAKDEAKTMSEEEAKRRAKKYKEKVLLSELSEEEQKEIKEAEEKLVRTILKYVEEAAK | 5.31 nM
I21V (designed binder) SMEEEVEKAAKEYEKKKKEAVEKHLEKLKAKDKEAAERFLKELEEAAKEYAKDEAKTMSEEEAKRRAKKYKEKVLLSELSEEEQKEIKEAEEKLVRTILKYVEEAAK | 0.446 nM
V74Q (designed binder) SMEEEVEKAAKEYEKKKKEAIEKHLEKLKAKDKEAAERFLKELEEAAKEYAKDEAKTMSEEEAKRRAKKYKEKQLLSELSEEEQKEIKEAEEKLVRTILKYVEEAAK | 29.5 nM
A47H (designed binder) SMEEEVEKAAKEYEKKKKEAIEKHLEKLKAKDKEAAERFLKELEEAHKEYAKDEAKTMSEEEAKRRAKKYKEKVLLSELSEEEQKEIKEAEEKLVRTILKYVEEAAK | 0.446 nM
Y101E (designed binder) SMEEEVEKAAKEYEKKKKEAIEKHLEKLKAKDKEAAERFLKELEEAAKEYAKDEAKTMSEEEAKRRAKKYKEKVLLSELSEEEQKEIKEAEEKLVRTILKEVEEAAK | 0.405 nM
